Experimental data: patent US20120020975A1 (published 2012)

Biological target: T1, mouse PCSK9, mPCSK9-8xHIS (mouse, UniProt Q80W65 35-694, limits assumed)
T1 construct: also called His-tagged mouse PCSK9; biotinylated-mouse PCSK9
Experiment: KinExA solution equilibrium
Description: Equilibrium dissociation constant (KD) were obtained from nonlinear regression of the two sets of competition curves using a one-site homogeneous binding model. The KinExA® Pro software was employed in the analysis.

- fold lower affinity than to human and cyno PCSK9: 10 to 250 fold
B1: 16F12, anti-PCSK9 huIgG4 (antibody, V domains shown)
VH: QVHLVESGGGVVQPGRSLRLSCAASGFTFNSFGMHWVRQAPGKGLEWVALIWSDGSDEYYADSVKGRFTISRDNSKNTLYLQMNSLRAEDTAVYYCARAIAALYYYYGMDVWGQGTTVTVSS
VL: QSVLTQPPSVSAAPGQKVTISCSGSSSNIGNNFVSWYQQLPGTAPKLLIYDYNKRPSGIPDRFSGSKSGTSATLGITGLQTGDEADYYCGTWDSSLSAYVFGTGTRVTVLQ
notes: also called 16F12.1
